Results: patent US20240182571A1 (OSE IMMUNOTHERAPEUTICS, published 2024)

Assays:
[1] = target: T1, Recombinant hPD1 (Sino Biologicals, reference 10377-H08H) (human, UniProt Q15116 25-167); experiment: ELISA, recombinant human PD-1 immobilised, anti-human Fc peroxidase
T1 construct: Bought reagent, immobilised on plastic; also called Human recombinant PD-1; rPD1
Procedure: (§1) A. PD-1 binding ELISA assay. Human recombinant PD-1 (rPD1) protein was immobilized, and antibodies were added at different concentrations. Revelation was performed with an anti-human Fc antibody coupled to peroxidase. Colorimetry was determined at 450 nm using TMB substrate. […] All constructions tested comprise a […] linker between the Fc and IL-7 domain.
For activity ELISA assay, recombinant hPD1 (Sino Biologicals, Beijing, China; reference 10377-H08H) was immobilized on plastic at 0.5 μg/ml in carbonate buffer (pH9.2) and purified antibody were added to measure binding.

[2] = target: T2, biotinylated Human PD1 (AcroBiosystems, reference EP-101) (human, UniProt Q15116 25-167, limits assumed, biotinylated); experiment: competitive ELISA, PD-L1 immobilised, antibody mixed with biotinylated human PD-1; PD1/PDL1 antagonist activity
T2 construct: also called biotinylated recombinant human PD-1; Biotin-PD-1Fc
T2 sequence (Q15116 25-167 limits assumed): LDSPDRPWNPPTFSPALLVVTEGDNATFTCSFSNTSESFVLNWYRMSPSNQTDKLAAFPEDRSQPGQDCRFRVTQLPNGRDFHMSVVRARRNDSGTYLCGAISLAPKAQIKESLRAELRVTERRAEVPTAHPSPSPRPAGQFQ
Procedure: as §1
Purified antibody (at different concentrations) were mixed with 0.66 μg/ml final (fix concentration) of biotinylated Human PD1 (AcroBiosystems; USA; reference EP-101) to measure competitive binding for 2 h at 37° C.

PD-1 expressed on cells [3] = target: T3, PD-1 expressed on cells (UniProt Q15116 25-288); experiment: flow cytometry, 1:1 co-culture of U937 PD-1+ and U937 PD-1- cells, detection with anti-human IgG PE, % positive cells
T3 construct: whole, on cells; also called U937 PD-1+ cells; U937 PD-1+ CD127+ cells
T3 sequence (Q15116 25-288): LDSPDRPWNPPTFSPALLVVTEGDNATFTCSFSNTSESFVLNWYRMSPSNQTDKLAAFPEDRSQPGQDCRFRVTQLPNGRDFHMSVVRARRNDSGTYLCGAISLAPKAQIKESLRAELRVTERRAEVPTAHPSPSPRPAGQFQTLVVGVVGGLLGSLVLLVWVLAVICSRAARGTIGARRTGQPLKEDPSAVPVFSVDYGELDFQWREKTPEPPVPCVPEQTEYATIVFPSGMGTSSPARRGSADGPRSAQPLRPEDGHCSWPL

PD-1 expressed on cells [4] = target: T3, PD-1 expressed on cells; experiment: flow cytometry, 1:1 co-culture of U937 PD-1+ and U937 PD-1- cells, detection with anti-human IgG PE, % positive cells [middle panel]
PD-1 expressed on cells [5] = target: T3, PD-1 expressed on cells; experiment: flow cytometry (FACs analysis), U937 PD-1+ CD127+ cells co-cultured with U937 PD-1- CD127+ cells, detection with anti-human IgG PE, % cell binding
Procedure: (§2) U937 cells expressing CD127+ or co-expressing CD127+ and PD-1+ cells were stained with a cell proliferation dye (CPDe450 or CPDe670) and co-cultivated at ratio 1:1 prior incubation with different concentrations of anti PD-1 IL-7 bifunctional molecules. Staining with and anti-human IgG PE and pSTAT5 activation was quantified after incubation by flow cytometry. A. EC50 binding (nM) was calculated for each cell type and each construction. B. EC50 pSTAT5 (nM) was calculated for each cell type and each construction.
(§3) Finally, the specific cis-targeting and cis-activity of the different anti PD-1 IL-7 constructions were analyzed in a co-culture assay. U937 PD-1+ CD127+ cells were mixed with PD-1− CD127+ cells (ratio 1:1), then incubated with the different constructions at escalating doses. The binding and the IL-7R signaling (pSTAT5) was quantified by flow cytometry. EC50 (nM) of the binding and the pSTAT5 activation was determined for each construction and for each PD-1+ and PD-1− cell population (FIG. 4A and B).
(§4) U937 transduced with CD127 and PD-1 were mixed with U937 transduced with CD127+ only.

PD-1 expressed on cells [6] = target: T3, PD-1 expressed on cells; experiment: as above; remark: listed apart in the source
Procedure: as §2, §3, §4

T1 sequence (Q15116 25-167 limits assumed): as the sequence (Q15116 25-167 limits assumed) above

| Binder | EC50 [1] [nM] | EC50 [2] [nM] | EC50 (read off the curve) (PD-1 expressed on cells [3]) [nM] | EC50 (read off the curve) (PD-1 expressed on cells [4]) [nM] | EC50 (read off the curve) (PD-1 expressed on cells [5]) [nM] | EC50 (read off the curve) (PD-1 expressed on cells [6]) [nM] |
| --- | --- | --- | --- | --- | --- | --- |
| anti PD-1*1 (antibody, human IgG1, kappa, N297A, One-armed control: like construction 3 but without IL-7; Chain A is the Fc chain (knob), chain B the anti PD-1 heavy chain (hole)) DKTHTCPPCPAPELLGGPSVFLFPPKPKDTLMISRTPEVTCVVVDVSHEDPEVKFNWYVDGVEVHNAKTKPREEQYASTYRVVSVLTVLHQDWLNGKEYKCKVSNKALPAPIEKTISKAKGQPREPQVYTLPPCRDELTKNQVSLWCLVKGFYPSDIAVEWESNGQPENNYKTTPPVLDSDGSFFLYSKLTVDKSRWQQGNVFSCSVMHEALHNHYTQKSLSLSPGK heavy: not shown light: DVVMTQSPLSLPVTLGQPASISCRSSQSLVHANTNTYLEWYQQRPGQSPRLLIYKVSNRFSGVPDRFSGSGSGTDFTLKISRVEAEDVGVYYCFQGTHVPNTFGQGTKLEIKRTVAAPSVFIFPPSDEQLKSGTASVVCLLNNFYPREAKVQWKVDNALQSGNSQESVTEQDSKDSTYSLSSTLTLSKADYEKHKVYACEVTHQGLSSPVTKSFNRGEC | 0.238 | 5.01 | ~0.02 |  |  |  |
| anti PD-1*2 (antibody, human IgG4 S228P, kappa, V domains shown, Anti PD-1 antibody with 2 anti PD-1 arms and no cytokine; also called anti PD-1 alone; anti PD-1 control) VH: QIQLVQSGSELKKPGASVKVSCKASGYTFTHYAMNWVRQAPGQGLEWMGWINTNTGEPTYAQGFTGRFVFSLDTSVSTAYLQISSLKAEDTAVYYCAREREPGMDNWGQGTLVTVSS VL: DVVMTQSPLSLPVTLGQPASISCRSSQSLVHANTNTYLEWYQQRPGQSPRLLIYKVSNRFSGVPDRFSGSGSGTDFTLKISRVEAEDVGVYYCFQGTHVPNTFGQGTKLEIKR | 0.021 |  |  | ~0.005 | ~0.02 | ~0.02 |
